Test results as given in the supplement of paper PMC6757056.
± gives the standard deviation of the averaged measurements.

B1: library; a variant is named by its letters at N, in order (parent)
chain: GCUGUCACCGGAAUACCAGCAUCGUCUUGAUGCCCUUGGAAGUCCGGUCUGAUGAGUCCNNNNNGGACGAAACAGC

What was measured:
[1] = variants of: B1; assay: FACS-Seq fitted mean relative fluorescence mCherry/BFP without ligand (log10 relative fluorescence); higher = higher reporter protein expression; settings: HEK293T, ligand present: no
Procedure, shortened: (§1)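 Sorting into 6 bins by mCherry/BFP followed 48 h of incubation with or without ligand. The cells were enriched HEK293T libraries lentivirally bearing an mCherry reporter with the ribozyme switch and an EF1α-BFP marker, and bin genomic DNA was PCR-amplified, barcoded and sequenced on MiSeq. Fluorescence is the fitted normal mean of the bin counts. Means were fitted on log10(mCherry/BFP), scaled to five spiked-in control ribozymes.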

[2] = variants of: B1; assay: normalized RNA/DNA level with ligand (relative to sTRSVctl = 100) (log10 (% of sTRSVctl)); higher = less ribozyme self-cleavage, higher mRNA level; settings: ligand concentration (+) RNA-Seq: 5 mM, HEK293T, reporter: mCherry (pCS4076), ligand present: yes
Procedure, shortened: (§2)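 For each 6-well well, 4 µg of library plasmid encoding mCherry-linked ribozyme switches, or eGFP-linked ones in some ligand experiments, was transfected into HEK293T. Any ligand was added 1 h before transfection, and RNA was extracted with EDTA 72 h after it, then reverse-transcribed, amplified, barcoded and sequenced. RNA level was obtained by dividing RNA reads by DNA reads, normalizing to a spiked-in non-cleaving sequence or to the top sequences, then scaling and log-transforming. The top set was 25 sequences, scaling was ×100 with log10, and ≥100 DNA reads were required.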

[3] = variants of: B1; assay: normalized RNA/DNA level without ligand (relative to sTRSVctl = 100) (log10 (% of sTRSVctl)); higher = less ribozyme self-cleavage, higher mRNA level; settings: HEK293T, reporter: mCherry (pCS4076), ligand present: no
Procedure, shortened: as §2

[4] = variants of: B1; assay: FACS-Seq fitted mean relative fluorescence mCherry/BFP with ligand (log10 relative fluorescence); ligand concentration (+) FACS-Seq: 1 mM; higher = higher reporter protein expression; settings: HEK293T, ligand present: yes
Procedure, shortened: as §1

AAUAG
FACS-Seq fitted mean (log10) [1]: 0.929 ± 0.015 | normalized RNA/DNA level with ligand (log10) [2]: 1.965 ± 0.015 | normalized RNA/DNA level without ligand (log10) [3]: 1.85 ± 0.039 | FACS-Seq fitted mean (log10) [4]: 0.894 ± 0.16

CACGC
FACS-Seq fitted mean (log10) [1]: 0.917 ± 0.026 | normalized RNA/DNA level with ligand (log10) [2]: 2.04 ± 0.065 | normalized RNA/DNA level without ligand (log10) [3]: 1.996 ± 0.013 | FACS-Seq fitted mean (log10) [4]: 1.04 ± 0.043

AGAUA
FACS-Seq fitted mean (log10) [1]: 0.67126 ± 0.00023 | normalized RNA/DNA level with ligand (log10) [2]: 2.01 ± 0.027 | normalized RNA/DNA level without ligand (log10) [3]: 1.61 ± 0.11 | FACS-Seq fitted mean (log10) [4]: 0.73474 ± 0.00057

UUGCG
FACS-Seq fitted mean (log10) [1]: 1.18 ± 0.2 | normalized RNA/DNA level with ligand (log10) [2]: 1.95 ± 0.094 | normalized RNA/DNA level without ligand (log10) [3]: 1.82 ± 0.08 | FACS-Seq fitted mean (log10) [4]: 1.12 ± 0.074

CGACU
FACS-Seq fitted mean (log10) [1]: 0.265 ± 0.1 | normalized RNA/DNA level with ligand (log10) [2]: 2 ± 0.031 | normalized RNA/DNA level without ligand (log10) [3]: 1.7 ± 0.14 | FACS-Seq fitted mean (log10) [4]: 0.5286 ± 0.0038

CAUAU
FACS-Seq fitted mean (log10) [1]: 0.397 ± 0.059 | normalized RNA/DNA level with ligand (log10) [2]: 2.02 ± 0.043 | normalized RNA/DNA level without ligand (log10) [3]: 1.76 ± 0.21 | FACS-Seq fitted mean (log10) [4]: 0.362 ± 0.069

CACGA
FACS-Seq fitted mean (log10) [1]: 0.805 ± 0.037 | normalized RNA/DNA level with ligand (log10) [2]: 1.998 ± 0.0074 | normalized RNA/DNA level without ligand (log10) [3]: 1.76 ± 0.036 | FACS-Seq fitted mean (log10) [4]: 0.917 ± 0.012

CCCUA
FACS-Seq fitted mean (log10) [1]: 0.768 ± 0.05 | normalized RNA/DNA level with ligand (log10) [2]: 2.01 ± 0.077 | normalized RNA/DNA level without ligand (log10) [3]: 1.872 ± 0.011 | FACS-Seq fitted mean (log10) [4]: 0.751 ± 0.022

CCAGA
FACS-Seq fitted mean (log10) [1]: 0.765 ± 0.044 | normalized RNA/DNA level with ligand (log10) [2]: 1.95 ± 0.15 | normalized RNA/DNA level without ligand (log10) [3]: 1.86 ± 0.098 | FACS-Seq fitted mean (log10) [4]: 0.758 ± 0.085

CUUCC
FACS-Seq fitted mean (log10) [1]: 0.782 ± 0.05 | normalized RNA/DNA level with ligand (log10) [2]: 2.02 ± 0.059 | normalized RNA/DNA level without ligand (log10) [3]: 2.032 ± 0.0046 | FACS-Seq fitted mean (log10) [4]: 0.683 ± 0.091

UAUAC
FACS-Seq fitted mean (log10) [1]: 0.747 ± 0.029 | normalized RNA/DNA level with ligand (log10) [2]: 2.06 ± 0.027 | normalized RNA/DNA level without ligand (log10) [3]: 1.98 ± 0.088 | FACS-Seq fitted mean (log10) [4]: 0.749 ± 0.0085

AGCAA
FACS-Seq fitted mean (log10) [1]: 0.327 ± 0.12 | normalized RNA/DNA level with ligand (log10) [2]: 1.94 ± 0.035 | normalized RNA/DNA level without ligand (log10) [3]: 1.46 ± 0.09 | FACS-Seq fitted mean (log10) [4]: 0.627 ± 0.067

CCUGA
FACS-Seq fitted mean (log10) [1]: 0.9447 ± 0.0047 | normalized RNA/DNA level with ligand (log10) [2]: 2.02 ± 0.028 | normalized RNA/DNA level without ligand (log10) [3]: 1.92 ± 0.16 | FACS-Seq fitted mean (log10) [4]: 0.904 ± 0.0082

CUUAU
FACS-Seq fitted mean (log10) [1]: 0.864 ± 0.067 | normalized RNA/DNA level with ligand (log10) [2]: 2.04 ± 0.071 | normalized RNA/DNA level without ligand (log10) [3]: 1.907 ± 0.014 | FACS-Seq fitted mean (log10) [4]: 0.901 ± 0.013

CUGUA
FACS-Seq fitted mean (log10) [1]: 0.501 ± 0.02 | normalized RNA/DNA level with ligand (log10) [2]: 2.08 ± 0.067 | normalized RNA/DNA level without ligand (log10) [3]: 1.61 ± 0.052 | FACS-Seq fitted mean (log10) [4]: 0.643 ± 0.013

UUUGU
FACS-Seq fitted mean (log10) [1]: 0.965 ± 0.067 | normalized RNA/DNA level with ligand (log10) [2]: 2.07 ± 0.082 | normalized RNA/DNA level without ligand (log10) [3]: 2.02 ± 0.041 | FACS-Seq fitted mean (log10) [4]: 0.8623 ± 0.0024

CAGUC
FACS-Seq fitted mean (log10) [1]: 0.691 ± 0.085 | normalized RNA/DNA level with ligand (log10) [2]: 1.94 ± 0.086 | normalized RNA/DNA level without ligand (log10) [3]: 1.86 ± 0.14 | FACS-Seq fitted mean (log10) [4]: 0.68 ± 0.13

UUCUU
FACS-Seq fitted mean (log10) [1]: 0.641 ± 0.06 | normalized RNA/DNA level with ligand (log10) [2]: 2.03 ± 0.11 | normalized RNA/DNA level without ligand (log10) [3]: 1.99 ± 0.057 | FACS-Seq fitted mean (log10) [4]: 0.58 ± 0.037

CACCA
FACS-Seq fitted mean (log10) [1]: 0.7294 ± 0.00094 | normalized RNA/DNA level with ligand (log10) [2]: 1.97 ± 0.083 | normalized RNA/DNA level without ligand (log10) [3]: 1.8 ± 0.071 | FACS-Seq fitted mean (log10) [4]: 0.792 ± 0.053

AUUAC
FACS-Seq fitted mean (log10) [1]: 1.05 ± 0.17 | normalized RNA/DNA level with ligand (log10) [2]: 1.99 ± 0.021 | normalized RNA/DNA level without ligand (log10) [3]: 1.96 ± 0.12 | FACS-Seq fitted mean (log10) [4]: 0.926 ± 0.096

CAGCA
FACS-Seq fitted mean (log10) [1]: 0.319 ± 0.011 | normalized RNA/DNA level with ligand (log10) [2]: 1.88 ± 0.099 | normalized RNA/DNA level without ligand (log10) [3]: 1.52 ± 0.1 | FACS-Seq fitted mean (log10) [4]: 0.461 ± 0.062

AACGA
FACS-Seq fitted mean (log10) [1]: 0.235 ± 0.038 | normalized RNA/DNA level with ligand (log10) [2]: 1.96 ± 0.1 | normalized RNA/DNA level without ligand (log10) [3]: 1.53 ± 0.17 | FACS-Seq fitted mean (log10) [4]: 0.536 ± 0.026

ACCCA
FACS-Seq fitted mean (log10) [1]: 0.9 ± 0.021 | normalized RNA/DNA level with ligand (log10) [2]: 2.02 ± 0.044 | normalized RNA/DNA level without ligand (log10) [3]: 1.93 ± 0.066 | FACS-Seq fitted mean (log10) [4]: 0.869 ± 0.033

ACGAA
FACS-Seq fitted mean (log10) [1]: 0.287 ± 0.046 | normalized RNA/DNA level with ligand (log10) [2]: 1.97 ± 0.098 | normalized RNA/DNA level without ligand (log10) [3]: 1.51 ± 0.045 | FACS-Seq fitted mean (log10) [4]: 0.661 ± 0.025

CCCGA
FACS-Seq fitted mean (log10) [1]: 0.977 ± 0.19 | normalized RNA/DNA level with ligand (log10) [2]: 1.956 ± 0.018 | normalized RNA/DNA level without ligand (log10) [3]: 1.93 ± 0.077 | FACS-Seq fitted mean (log10) [4]: 0.827 ± 0.058

AGUAA
FACS-Seq fitted mean (log10) [1]: 0.346 ± 0.083 | normalized RNA/DNA level with ligand (log10) [2]: 1.89 ± 0.12 | normalized RNA/DNA level without ligand (log10) [3]: 1.35 ± 0.13 | FACS-Seq fitted mean (log10) [4]: 0.781 ± 0.02

CGGUA
FACS-Seq fitted mean (log10) [1]: 0.028 ± 0.083 | normalized RNA/DNA level with ligand (log10) [2]: 1.894 ± 0.0076 | normalized RNA/DNA level without ligand (log10) [3]: 1.3 ± 0.025 | FACS-Seq fitted mean (log10) [4]: 0.602 ± 0.0084

AGAUG
FACS-Seq fitted mean (log10) [1]: 0.533 ± 0.011 | normalized RNA/DNA level with ligand (log10) [2]: 1.9309 ± 0.0011 | normalized RNA/DNA level without ligand (log10) [3]: 1.803 ± 0.017 | FACS-Seq fitted mean (log10) [4]: 0.4899 ± 0.0023

UACUC
FACS-Seq fitted mean (log10) [1]: 0.1 ± 0.14 | normalized RNA/DNA level with ligand (log10) [2]: 2.1 ± 0.021 | normalized RNA/DNA level without ligand (log10) [3]: 2.02 ± 0.039 | FACS-Seq fitted mean (log10) [4]: 0.351 ± 0.022

AACAU
FACS-Seq fitted mean (log10) [1]: 0.214 ± 0.0061 | normalized RNA/DNA level with ligand (log10) [2]: 1.93 ± 0.1 | normalized RNA/DNA level without ligand (log10) [3]: 1.75 ± 0.067 | FACS-Seq fitted mean (log10) [4]: 0.439 ± 0.045

AAGAA
FACS-Seq fitted mean (log10) [1]: 0.0676 ± 0.046 | normalized RNA/DNA level with ligand (log10) [2]: 1.94 ± 0.04 | normalized RNA/DNA level without ligand (log10) [3]: 1.36 ± 0.025 | FACS-Seq fitted mean (log10) [4]: 0.545 ± 0.015

UUGUC
FACS-Seq fitted mean (log10) [1]: 0.132 ± 0.031 | normalized RNA/DNA level with ligand (log10) [2]: 1.99 ± 0.027 | normalized RNA/DNA level without ligand (log10) [3]: 2.01 ± 0.063 | FACS-Seq fitted mean (log10) [4]: 0.305 ± 0.035

GAAAC
FACS-Seq fitted mean (log10) [1]: 0.594 ± 0.018 | normalized RNA/DNA level with ligand (log10) [2]: 1.97 ± 0.025 | normalized RNA/DNA level without ligand (log10) [3]: 1.77 ± 0.072 | FACS-Seq fitted mean (log10) [4]: 0.621 ± 0.075

AAGUU
FACS-Seq fitted mean (log10) [1]: 0.341 ± 0.057 | normalized RNA/DNA level with ligand (log10) [2]: 1.939 ± 0.0073 | normalized RNA/DNA level without ligand (log10) [3]: 1.75 ± 0.073 | FACS-Seq fitted mean (log10) [4]: 0.39 ± 0.035

AAGCC
FACS-Seq fitted mean (log10) [1]: 0.748 ± 0.02 | normalized RNA/DNA level with ligand (log10) [2]: 2.03 ± 0.089 | normalized RNA/DNA level without ligand (log10) [3]: 2.01 ± 0.071 | FACS-Seq fitted mean (log10) [4]: 0.7196 ± 0.0051

UCCGG
FACS-Seq fitted mean (log10) [1]: 1.14 ± 0.16 | normalized RNA/DNA level with ligand (log10) [2]: 1.97 ± 0.12 | normalized RNA/DNA level without ligand (log10) [3]: 2.05 ± 0.077 | FACS-Seq fitted mean (log10) [4]: 1.02 ± 0.03
